A short description of the series: yeast display, Sf9 membrane polyspecificity reagent, FACS + sequencing; frameworks hold sequencing errors. The gist of the method:
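Nanobodies from a synthetic yeast display library (Saccharomyces cerevisiae BJ5465), induced 36–48 hours with galactose, were stained 1 hour at 4 °C with 10% biotinylated, detergent-solubilized Sf9 membrane reagent, enriched on streptavidin microbeads, then FACS-sorted. Anti-HA (expression) and streptavidin (reagent binding) fluorescence set low and high (top ~1%) gates. Polyreactivity labels come from the gate of origin. Genes were colony-PCR amplified, MiSeq 2 × 250 sequenced and filtered by CDR length.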
On to “QVQVVESGGGLVQAGGSLRLSCAASGSIFFVYAMGWYRQAPGKERELVAAISSGDITYYADSVKGRFTISRDNAKNTVYLQLISLKPEDTAVYYCNAERLGNTLSPGGDDYWGQGTQVTVSS”, for which the “polyreactivity (PSR sort gate)” value is reported as “low polyreactivity”. Regarding “QVQLVESGGGLVQAGGSLRLSCADSGITLYEYAMGWYRKAPGKERELVAAISTSGGRTRYADSVKGRFTISRDNAKNTVYLQMNSLKPEDTAVYYCAASGFVQISNPRRDYWGLGTQVTVSS”, the “polyreactivity (PSR sort gate)” value is on record as “high polyreactivity”. In the case of “QVQLVESGGGLFQAGGSLRISCAASGSTFRGYVMGWYRQAPGKERELVAAISRSGTSTYYADSVKGRFTISRDNAKNTVYLQMNSLKPEDTAVYYCAAQLYGHGEDYWGQGTQVTVSS”, the “polyreactivity (PSR sort gate)” value is reported as “high polyreactivity”. In the case of “QVQLVESGGGLLQAGGSLRLSCAASGIIIVGYAMGWYRQAPGKERELVAAISRSSGSTYYADSVKGRFTISRDNAKNTVYLQMNSLKPEDTAVYYCARYNQYYSTEDYWGQGPQVTVSS”, the “polyreactivity (PSR sort gate)” value is given as “high polyreactivity”.

With “QVQRVESGGGLVQAGGSLRLSCAASGFIITRYSMGWYRQAPGKEREMVAVINSSGGSTYYADSVKGRFTISRDTAKNTVYVQMNSLKPEDTAVYYCNALSRYRIWSYGYWGQGTQVTVSS”, the “polyreactivity (PSR sort gate)” value was “high polyreactivity”. With “QVQLVESGGGLVQSGGSLRLSCAASGCIFSKNAMGWYRPAPGKERELVAAISWSGGSTSYADSVKGRFTISRDNAKNTVYLQMNSLKPEDTAVYYCARVGAIPSRYGYWGQGTQVTVSS”, the “polyreactivity (PSR sort gate)” value was “high polyreactivity”. Regarding “QVQLVESGGGLDQARGSLRLSCAASGRTFVLNAMGWYRQAPGKERELVAAITLGGGSTYADSVKGRFTISRANAKNTVYLQMNSLKPEDTAVYYCAADFHYPYFEYWGQGTQVTVSS”, the “polyreactivity (PSR sort gate)” value is “low polyreactivity”. “QVQLVESGGGLVQAGGSLRLSCAASGSTFIDYGMGWYRQAPGKERELVAAIDLDSGDTYYADSVKGRFTISRDNAKNTVYLQMNSLKPEDTAVYYCAAQYWYRYNYWGQGTQVTVSS”: the “polyreactivity (PSR sort gate)” value was “low polyreactivity”.

Take “QVQLVESGGGLVQAGGSLRLSCAASGSTFTVYAMGWYRQAPGKERELVAAISWGGGSTNYADSVKGRFTISRDNAKNTVYLQMNSLKPEDTAVYYCNADIDVIIGSWGDYWGQGTQVTVSS”: the “polyreactivity (PSR sort gate)” value is recorded as “low polyreactivity”. “QVQLVESGGGLVQAGGSIRLSCAASGSIFGSNAMGWYRQAPGKERELVDAISGSGGSTNYADSVKGRFTISRDNAKNTVYLQMNSLKAEDTAVYYCAVPSKATGSASTSSGIFDSWGQGTQVTVSS”: the “polyreactivity (PSR sort gate)” value is on record as “low polyreactivity”. Regarding “QVQLVESGGGLVQAGGTLRLSCAASGRILPRNAMGWSRQAPGKERELVAGISSDGSTNYADSVKGRFTISRDNAKNSVYLQMNILKPEDTAVYYCAADGVYDPYVYGYWGQGTQVTVSS”, the “polyreactivity (PSR sort gate)” value is “low polyreactivity”. As for “QVQLVESGGGLVQAGGSLRLICAASGRIFRGNAMGWYRQAPGKERELVAAISSGGSTNYADSVKGRFTISRDNEKNTVYLQMNSLKPEDTAVYYCAASRVRSYFGRYYWGQGTQVTVSS”, the entry is “high polyreactivity”. As for “QVQLVESGGGLVQAGGSLRLSCAASGSTFDGYALGWYRQAPGKERELVAAISKNGGRTYYADSVKGRFTISRDNAKNTVYLQMNSLKPEDTAVYYCAKDIIKYDYDYWGQGTQVTVSS”, the “polyreactivity (PSR sort gate)” value is listed as “low polyreactivity”. In the case of “QVQLVESGGCLVQAGGSLRLSCSTSGSTFAVYVMGWSRQAPGKERELVAAISTSGARTYYADSVKGRFTISRDNAKNTDYLQMNSLKPEDTAVYYCAARGIYKSKYDYWGQGTQVSVSS”, the “polyreactivity (PSR sort gate)” value is listed as “high polyreactivity”.

Turning to “QVQLVESGGGLVQAGGSLRLSCAASGRTSWRYAMGWYRQAPGKERELVAAINRGGSTYYADSVMGRFTISRDNAKNTVYLQMNSLKPEDTAVYYFAVDTPLVYYHQQAYVAGEYWGQGTQVTVSS”, the “polyreactivity (PSR sort gate)” value is on record as “low polyreactivity”.

Take “QVQLVESGGGLVQAGGSLRLSCAASGSIFFYAMGWYRPAPGKERELVAAISWRGGSTYYADSVKGRFTISRDNAKNTVYLQMNSLKPEDTAVYYCAKATRRYDVYTYGYWGQGTQVTVSS”: the “polyreactivity (PSR sort gate)” value is listed as “high polyreactivity”. Next, “QVQLVESVGGLVQAGGSLRLSCAASGYIFKYYAMGWYRQAPGKERELVAAISRSGGSTYYADSVKGRFTISRDNAKNTVYLQMNSLKPEDTAVYYCNAAAYVWKSKQRLYVITYDYWGQGTQVTVSW”: “high polyreactivity”; “QVQLVESGGGLVQAGGSLRLSCAASGLTFYGYAMGWYRQAPGKERELVAAIRWSGGRTYYADSVKGRFTISRDNAKNTVYLQMNSLKPEDTAVYYCAADYSRYYGGDYWGQGTQVTVSS”: “low polyreactivity”; “QVQLVESGGGLVQAGGSLRLSCAASGRTFGQNAMGWYRQAPGKERELVASIRSGGITDYADSVKGRFTISRDNAKNTVYLQMNSLKPEDTAVYYCNAEGVWWSTRYDSWGQGTQVTVSS”: “low polyreactivity”. As for “QVQLVESGRGLVQAGGSLRLSCAASGFIFSNAIGWYRQAPGKERELVAAISRSGGSTYYADSVKGRVTISRDNAKNTVSLQMNSLKPEDTAVEYCAARSYPRSPVRYDYWGQGTQVTVSS”, the “polyreactivity (PSR sort gate)” value is “high polyreactivity”. Consider “QVQLVESGGGLVQAGGSLRLSCAASGNILRGYAMGWYRQAPGKERELVAAINRGGGSTYYADSVKGRFTISRDNAKNTVYLQMNSLKPEDTAVYYCAARYPHRGYTFDYWGQGTQVTVSS”, for which the “polyreactivity (PSR sort gate)” value is “low polyreactivity”.

In the case of “QVQLVESGGGLVQAGGSLRLSCAASGRTFGLYAMGWYRPAPGKERELVADINGSGTRTYYADSVKGRFTISRDYAKNTVYLQMNSLKPEDTAVYYCYGRYHWLYYWGQGTQVTVSS”, the “polyreactivity (PSR sort gate)” value is “high polyreactivity”. As for “QVQLVESGGGLVQAGGSLRLSCADSGSIFFFYAMGWYRQAPGKERELVAAISKSPSSTYYADSVKGRFTISRDNAKNTVYLQMNSLKPEDTAVYYCNTGYSGIQYYYWGQGAQVTVSS”, the “polyreactivity (PSR sort gate)” value is “low polyreactivity”. As for “QVQLVESGGGLVQAGGSLRLSCAASGSTFGKYAMGWYRPAPGKERELVAAITNGGRTNYADSVKGRFTISRDNAMNTVYLQMNSLKPEDTAVYYCNKARYGTDDYDYWGQGTQVTVSS”, the “polyreactivity (PSR sort gate)” value is reported as “low polyreactivity”. For the sequence “QVQLVESGGGLVQAGGSLRLSCAASGRTFGPYEMGWYTQAPGKERELVASISSADSTYYADSVKGRFTISRDNAKNTVYLQMYSLKPEDTAVYYCAAPSVGYYDPTDFDYWGQGTQVTVSS”, the “polyreactivity (PSR sort gate)” value is on record as “low polyreactivity”. Consider “QVQLVESGGGLVQAGASLRLSCAASGSTQGWYAMGRYRQAPGKERELVAAISWSGSSTYYADSVKGRFTISRDTAKNTVYLQMNSLKPEDTAVYYCATTSSEVGELRICDYWGQGTQVTVSS”, for which the “polyreactivity (PSR sort gate)” value is given as “low polyreactivity”.

As to “QVQLVESGGGLVQAGGSLRLSCAASGFILAYYAMGWYRQSPGKERELVAAISIGSSTDYADSVKGRFTISRDNAKNTVYLQMNSLKPEDTAVYYCAARDYYYEYDYWGQGTQVTVSS”, the “polyreactivity (PSR sort gate)” value is reported as “low polyreactivity”. Take “QVQLVESGGGLVQAGGSLRLSCAASGLIFYDNMGWYRQAPGKERELVAAISSSGGSTSYADSVKGRFTISRDNAKNTVYLQMNSLKPEDTAVYYCAADQYYYWYTHQSIGYDYWGQGTQVTVSS”: the “polyreactivity (PSR sort gate)” value is “low polyreactivity”.

As to “QVQLVESGGGLVQAGGSLRLSCAASGRTFTRYAMGWYRQAPGKERELVAAISWSGGSTYYADSVKGRFTISRDNAKNTVYLQMNSLKPEDTAVYYCNAYYYYPEFNYWGLGTQVTVSS”, the “polyreactivity (PSR sort gate)” value is “high polyreactivity”. For the sequence “QVQLVESGGGLVQAGGSLRLSCAASGRLFPYYDMGWYRQAPGKERELVAAITGNGGSTYYADSVKGRFTISRDNAKNTVYLQMNSLKPEDTAVYYCAVDPYYYGEDYWGQGTQVTVSS”, the “polyreactivity (PSR sort gate)” value is given as “low polyreactivity”. Regarding “QVQLVESGGGLVQAGGSLRLSCAASGIIFASYAMGWYRQAPGKERELVAAITWDGDSTYYADSVKGRFSISRDNAKNTVYLQRNSLKPEDTAVYYCAADGVYVGFYGYDYDYWGQGTQVTVSS”, the “polyreactivity (PSR sort gate)” value was “low polyreactivity”.

In the case of “QVQLVESGGGLVQAGGSLRLSCAASGIIFKRYTMGWYRQAPGKERELVAAITNRGGTYYADSVKGRFTISRDNAKNTVYLQMNSLKPEDTAVYYCAARYYWIDFKFGGPRDYWGQGTQVTVSS”, the “polyreactivity (PSR sort gate)” value is on record as “high polyreactivity”. For the sequence “QVQLVESGGGLVQAGGSLRLSCAASGSIFIDNAMGWYRQAPGKERELVAAITVRGASTNYADSVKGRFTISRDIAKNTVYLQMNSLKPEDTAVYYCNAVGLRSPWHQDFLIRYDYWGQGTQVTVSS”, the “polyreactivity (PSR sort gate)” value is given as “low polyreactivity”. With “QVQLVESGGGLVQAGGSLRLSCAASGFTFSFYTMGWYRQAPGKERELVAAISRRGGSTYYADSVKGRFTISRDNAKNTVYLQMNSLKPEDTAVYYCATDHIPSVGVDYWGQGTQVTVSS”, the “polyreactivity (PSR sort gate)” value is listed as “high polyreactivity”.

With “QVQLVESGGGLVQAGGSLRLSCAASGSTFSHYTMGWYRQAPGKERQLVAAINYGGASTYDADSVKGRFTISRDNAKNTVYLQMNSLKPEDTAVYYCAAAYRPSEQYNYWGQGTQVTVSS”, the “polyreactivity (PSR sort gate)” value is given as “low polyreactivity”. “QVPLVESGGGLVQAGGSLRLSWAASGRTFVPYAMGWDSPAPGKDWELVAAISSGGDTNYADSVKGRVTISRDNAKNTVYLQMNSLKPEDTAVSYCAADVKRDRVWGGDYWGQGTQVTVSS”: the “polyreactivity (PSR sort gate)” value is on record as “low polyreactivity”. Next, “QVQLVESGGGLVQAGGSLRLSCAASGSTFHYYAMGWYRQAPGKERELVAAISSSGVSTYYADSVKGRFTISRDNAKNTVYLQMNSLKPEDTAVYYCNRASVFHYRWYYYWGQGTQVTVSS”: “high polyreactivity”; “QGQLVESGGGLVQAGGSLRLSCAASGSIFSHYAMGWYRQAPGKEMELVAAISRSGGSTYYADSVKGRFTISRDNAKNTVYLQMNCLKPEDTAVYYCAKEGDSGYWFDYWGQGTQVTVSS”: “low polyreactivity”. Consider “QVQHVESGGGIVQAGGSLRISCSASGRTLGYYAMGLYRQAPGKETEMVAASSRSGGSTYYADSVQGRFTNSRDNAKNTVYVEMQSLNPEDTAVYDCAATYGPSRYRYDYWGQGTQVTVSS”, for which the “polyreactivity (PSR sort gate)” value was “high polyreactivity”. As to “QVQLVESGGGLVQAGGSLRLSCAASGITFTFNAMGWYRQAPGKERELVAAITWSGGSTFYADSVKGRFTITRDNAKNTVYLQMNSLKPEDTAVYYCARDTELYVRWLDYWGQGTQVTVSS”, the “polyreactivity (PSR sort gate)” value was “low polyreactivity”. As to “QVQLVESGGGLVQAGGSLRLSCASSGSTFDANAMGWYRQAPGKERELVAAITSNGGSTYYADSVKGRFTISRDNAKNTVYLQMNSLKPEDTAVYYCATEQHTVQDYDYWGQGTQVTVSS”, the “polyreactivity (PSR sort gate)” value was “low polyreactivity”.

The values are drawn from the nanobody polyreactivity screen of Harvey et al. (2022).
